Data on one protein can be found in paper PMC8329864, “Mycobacterium tuberculosis ferritin: a suitable workhorse protein for cryo-EM development” (Acta Crystallographica. Section D, Structural Biology, 2021).

This series deals with the molecule itself. Briefly: SEC. For orientation: In gel filtration, larger molecules generally elute earlier.

B1: bacterioferritin B (BfrB) from Mycobacterium tuberculosis (natural protein)
chain: MTEYEGPKTKFHALMQEQIHNEFTAAQQYVAIAVYFDSEDLPQLAKHFYSQAVEERNHAMMLVQHLLDRDLRVEIPGVDTVRNQFDRPREALALALDQERTVTDQVGRLTAVARDEGDFLGEQFMQWFLQEQIEEVALMATLVRVADRAGANLFELENFVAREVDVAPAASGAPHAAGGRL
notes: also called BrfB; mycobacterial ferritin; copies: 24
B1: the binding result is listed as “binds”.
